{"source": "paper PMC3708895", "origin": "cited, not measured here", "molecular_target": "T4 capsid (gp23) (Escherichia virus T4) (UniProt P04535)", "sequence (P04535 66-521)": "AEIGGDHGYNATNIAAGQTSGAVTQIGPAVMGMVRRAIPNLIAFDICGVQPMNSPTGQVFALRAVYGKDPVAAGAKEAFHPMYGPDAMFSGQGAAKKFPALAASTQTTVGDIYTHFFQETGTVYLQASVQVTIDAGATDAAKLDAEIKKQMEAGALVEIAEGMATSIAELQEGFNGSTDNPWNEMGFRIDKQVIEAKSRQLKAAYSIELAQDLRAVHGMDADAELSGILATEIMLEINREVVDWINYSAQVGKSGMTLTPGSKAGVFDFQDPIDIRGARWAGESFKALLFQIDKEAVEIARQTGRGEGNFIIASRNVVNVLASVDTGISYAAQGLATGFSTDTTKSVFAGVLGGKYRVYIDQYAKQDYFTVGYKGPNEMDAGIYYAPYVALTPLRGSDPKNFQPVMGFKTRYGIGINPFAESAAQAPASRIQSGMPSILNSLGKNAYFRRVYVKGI"}
{"substance": "Soc (from UniProt P03715)", "values": [{"measurement": "Kd", "result": 75, "unit": "nM"}]}
